Laboratory results: US20030186329

How the values were obtained:
[1] = test system: T1, peptide (III) of Table 1, LGGSGERARGALE
T1 sequence: LGGSGERARGALE

[2] = test system: phage clone 34, displaying hexamer RNAQVR
peptide LGGYGRSANAILE [3] = test system: T2, peptide LGGYGRSANAILE
T2 sequence: LGGYGRSANAILE

[4] = target: fusion of maltose binding protein, QRGRSA and the HY4 gene product of Arabidopsis thaliana (UniProt Q43125)
[5] = test system: T3, peptide (IV) of Table 1, LGGSGHYGRSGLE
T3 sequence: LGGSGHYGRSGLE

[6] = test system: phage clone 38, displaying hexamer RRAVSN
peptide LGQRGRSANAILE [7] = test system: T4, peptide LGQRGRSANAILE
T4 sequence: LGQRGRSANAILE

[8] = test system: T5, peptide (V) of Table 1, YGRS
T5 sequence: YGRS

peptide LGGRGRSANAILE [9] = test system: T6, peptide LGGRGRSANAILE
T6 sequence: LGGRGRSANAILE

peptide LGGSGRSATRDLE [10] = test system: T7, peptide LGGSGRSATRDLE
T7 sequence: LGGSGRSATRDLE

peptide SGRSA [11] = test system: T8, peptide SGRSA
T8 sequence: SGRSA

[12] = test system: T9, peptide (II) of Table 1, LGGSGQRGRKALE
T9 sequence: LGGSGQRGRKALE

[13] = test system: phage 33, displaying hexamer RSANAI
[14] = test system: phage clone 37, displaying hexamer RKASLS
[15] = test system: T10, peptide (VII) of Table 1, FRGRK
T10 sequence: FRGRK

[16] = test system: phage clone 40, displaying hexamer RSSSSH
[17] = test system: T11, peptide (VI) of Table 1, RGRK
T11 sequence: RGRK

[18] = test system: phage clone 36, displaying hexamer RSAKVD
[19] = test system: phage clone 35, displaying hexamer RSATRD
[20] = test system: phage clone 39, displaying hexamer RSAVVK
[21] = test system: T12, peptide (I), native cleavage sequence from plasminogen
T12 sequence: KKSPGRVVGGSVAH

peptide LGGSGRKASLSLE [22] = test system: T13, peptide LGGSGRKASLSLE
T13 sequence: LGGSGRKASLSLE

peptide SGKS [23] = test system: T14, peptide SGKS
T14 sequence: SGKS

peptide GSGKS [24] = test system: T15, peptide GSGKS
T15 sequence: GSGKS

peptide SGRS [25] = test system: T16, peptide SGRS
T16 sequence: SGRS

peptide LGGSGRNAQVRLE [26] = test system: T17, peptide LGGSGRNAQVRLE
T17 sequence: LGGSGRNAQVRLE

peptide LGGSGRSANAILE [27] = test system: T18, peptide LGGSGRSANAILE
T18 sequence: LGGSGRSANAILE

[28] = test system: T1, peptide (III) of Table 1, LGGSGERARGALE; test: kinetics of peptide hydrolysis by the enzyme, HPLC, Eadie-Hofstee
peptide LGGYGRSANAILE [29] = test system: T2, peptide LGGYGRSANAILE; test: as above
[30] = test system: T3, peptide (IV) of Table 1, LGGSGHYGRSGLE; test: as above
peptide LGQRGRSANAILE [31] = test system: T4, peptide LGQRGRSANAILE; test: as above
peptide LGGRGRSANAILE [32] = test system: T6, peptide LGGRGRSANAILE; test: as above
peptide LGGSGRSATRDLE [33] = test system: T7, peptide LGGSGRSATRDLE; test: as above
[34] = test system: T9, peptide (II) of Table 1, LGGSGQRGRKALE; test: as above
[35] = test system: T12, peptide (I), native cleavage sequence from plasminogen; test: as above
peptide LGGSGRKASLSLE [36] = test system: T13, peptide LGGSGRKASLSLE; test: as above
peptide LGGSGRNAQVRLE [37] = test system: T17, peptide LGGSGRNAQVRLE; test: as above
peptide LGGSGRSANAILE [38] = test system: T18, peptide LGGSGRSANAILE; test: as above
[39] = test system: T5, peptide (V) of Table 1, YGRS; test: kinetics of peptide hydrolysis by the enzyme, HILIC HPLC, Eadie-Hofstee
peptide SGRSA [40] = test system: T8, peptide SGRSA; test: as above
[41] = test system: T10, peptide (VII) of Table 1, FRGRK; test: as above
[42] = test system: T11, peptide (VI) of Table 1, RGRK; test: as above
peptide SGKS [43] = test system: T14, peptide SGKS; test: as above
peptide GSGKS [44] = test system: T15, peptide GSGKS; test: as above
peptide SGRS [45] = test system: T16, peptide SGRS; test: as above
peptide LGGSGRSANAILE [46] = test system: T18, peptide LGGSGRSANAILE; test: kinetics of peptide hydrolysis by u-PA, HPLC, Eadie-Hofstee

Sequence of fusion of maltose binding protein, QRGRSA and the HY4 gene product of Arabidopsis thaliana (Q43125 other isoform, or with tags, fused parts or gaps): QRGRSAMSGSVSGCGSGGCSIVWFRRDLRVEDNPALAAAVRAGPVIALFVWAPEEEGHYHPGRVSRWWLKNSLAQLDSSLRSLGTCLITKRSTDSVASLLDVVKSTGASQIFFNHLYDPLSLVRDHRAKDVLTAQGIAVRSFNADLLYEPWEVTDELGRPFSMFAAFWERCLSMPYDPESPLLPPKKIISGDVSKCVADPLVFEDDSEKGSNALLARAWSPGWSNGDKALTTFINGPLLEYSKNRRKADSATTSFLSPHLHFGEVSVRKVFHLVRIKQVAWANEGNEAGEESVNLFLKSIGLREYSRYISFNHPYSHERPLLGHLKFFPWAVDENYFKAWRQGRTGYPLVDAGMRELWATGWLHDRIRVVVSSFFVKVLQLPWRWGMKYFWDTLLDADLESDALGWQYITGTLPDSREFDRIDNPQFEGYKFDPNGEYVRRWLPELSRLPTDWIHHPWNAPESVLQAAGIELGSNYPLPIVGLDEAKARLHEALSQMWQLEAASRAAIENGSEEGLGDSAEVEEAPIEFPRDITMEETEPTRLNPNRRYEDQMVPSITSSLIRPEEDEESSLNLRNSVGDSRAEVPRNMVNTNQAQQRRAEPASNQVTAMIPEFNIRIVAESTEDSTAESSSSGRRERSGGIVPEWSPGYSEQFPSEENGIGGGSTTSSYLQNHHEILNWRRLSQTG

In the case of “urokinase-type plasminogen activator (u-PA)”, the kcat [1] is reported as 0.004 s⁻¹, the kcat/Km [1] is reported as 4 M⁻¹ s⁻¹ and the “dot blot analysis under the most stringent conditions of digestion” value (“dot blot analysis” below) [2] is reported as “proved to be particularly labile u-PA substrates”. For the same substance, the kcat (peptide LGGYGRSANAILE [3]) was 0.7 s⁻¹, the kcat/Km (peptide LGGYGRSANAILE [3]) was 318 M⁻¹ s⁻¹ and the “cleavage of fusion protein, SDS-PAGE” value [4] was “whereas u-PA did not”. For the same substance, the kcat [5] was 0.059 s⁻¹, the kcat/Km [5] was 15 M⁻¹ s⁻¹ and the “dot blot analysis” value [6] was “proved to be particularly labile u-PA substrates”. For the same substance, the kcat (peptide LGQRGRSANAILE [7]) was 0.068 s⁻¹, the kcat/Km (peptide LGQRGRSANAILE [7]) was 45 M⁻¹ s⁻¹ and the kcat [8] was 2.6 s⁻¹. For the same substance, the kcat/Km [8] was 230 M⁻¹ s⁻¹, the kcat (peptide LGGRGRSANAILE [9]) was 0.08 s⁻¹ and the kcat/Km (peptide LGGRGRSANAILE [9]) was 67 M⁻¹ s⁻¹. For the same substance, the “fold improvement as substrate against control peptide (I)” value (peptide LGGSGRSATRDLE [10]) was “by factors of 840-5300”, the kcat (peptide LGGSGRSATRDLE [10]) was 0.54 s⁻¹ and the kcat/Km (peptide LGGSGRSATRDLE [10]) was 740 M⁻¹ s⁻¹. For the same substance, the kcat (peptide SGRSA [11]) was 3.7 s⁻¹, the kcat/Km (peptide SGRSA [11]) was 1200 M⁻¹ s⁻¹ and the kcat [12] was 0.02 s⁻¹. The kcat/Km [12] was 9.2 M⁻¹ s⁻¹, the “dot blot analysis” value [13] was “proved to be particularly labile u-PA substrates” and the “dot blot analysis” value [14] was “proved to be particularly labile u-PA substrates”. For the same substance, the kcat [15] was 0.14 s⁻¹, the kcat/Km [15] was 16 M⁻¹ s⁻¹ and the “dot blot analysis” value [16] was “proved to be particularly labile u-PA substrates”. The kcat [17] was 0.76 s⁻¹, the kcat/Km [17] was 16 M⁻¹ s⁻¹ and the “dot blot analysis” value [18] was “proved to be particularly labile u-PA substrates”. The “dot blot analysis” value [19] was “proved to be particularly labile u-PA substrates”, the “dot blot analysis” value [20] was “proved to be particularly labile u-PA substrates” and the kcat [21] was 0.003 s⁻¹. For the same substance, the kcat/Km [21] was 0.88 M⁻¹ s⁻¹, the kcat (peptide LGGSGRKASLSLE [22]) was 1.14 s⁻¹ and the kcat/Km (peptide LGGSGRKASLSLE [22]) was 1010 M⁻¹ s⁻¹. The “fold decrease of catalytic efficiency against peptide (VI) SGRS” value (peptide SGKS [23]) was “by a factor of 7 for u-PA”, the kcat (peptide SGKS [23]) was 1.22 s⁻¹ and the kcat/Km (peptide SGKS [23]) was 154 M⁻¹ s⁻¹. It also gave a kcat (peptide GSGKS [24]) of 0.82 s⁻¹, a kcat/Km (peptide GSGKS [24]) of 193 M⁻¹ s⁻¹ and a kcat (peptide SGRS [25]) of 2.3 s⁻¹. For the same substance, the kcat/Km (peptide SGRS [25]) was 1100 M⁻¹ s⁻¹, the kcat (peptide LGGSGRNAQVRLE [26]) was 3.69 s⁻¹ and the kcat/Km (peptide LGGSGRNAQVRLE [26]) was 3200 M⁻¹ s⁻¹. The “fold improvement as substrate against control peptide (I)” value (peptide LGGSGRSANAILE [27]) was “by factors of 840-5300”, the “fold increase of kcat against control peptide (I)” value (peptide LGGSGRSANAILE [27]) was “increased by a factor of more than 940” and the kcat (peptide LGGSGRSANAILE [27]) was 2.83 s⁻¹. It also gave a kcat/Km (peptide LGGSGRSANAILE [27]) of 4700 M⁻¹ s⁻¹, a Km [28] of 970 µM and a Km (peptide LGGYGRSANAILE [29]) of 2200 µM. It also gave a Km [30] of 3800 µM, a Km (peptide LGQRGRSANAILE [31]) of 1500 µM and a Km (peptide LGGRGRSANAILE [32]) of 1200 µM. For the same substance, the Km (peptide LGGSGRSATRDLE [33]) was 733 µM, the Km [34] was 2180 µM and the Km [35] was 3400 µM. The Km (peptide LGGSGRKASLSLE [36]) was 1130 µM, the Km (peptide LGGSGRNAQVRLE [37]) was 1160 µM and the Km (peptide LGGSGRSANAILE [38]) was 603 µM. The Km [39] was 11400 µM, the Km (peptide SGRSA [40]) was 3100 µM and the Km [41] was 8600 µM. It also gave a Km [42] of 46500 µM, a Km (peptide SGKS [43]) of 7900 µM and a Km (peptide GSGKS [44]) of 4250 µM. The Km (peptide SGRS [45]) was 2100 µM and the “fold reduction of Km against control peptide (I)” value (peptide LGGSGRSANAILE [46]) was “reduced by a factor of 5.6”.
